Assay results published in the supplement of paper PMC9732359.
± gives the uncertainty stated by the source.

Experiment: protein stability index of a GFP-peptide fusion (yeast GPS) (PSI 1-4); higher = more stable; sorted into four equal gates, so the index is relative within each strain
Summary of the method: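 Plasmids in a pooled yeast library fused tiled 17-residue yeast protein peptides downstream of GFP and also expressed Cherry. Mid-log cultures grown without leucine were sorted into four equal gates by GFP/Cherry fluorescence ratio. Each gate's plasmids were PCR-amplified and Illumina-sequenced, and reads were matched to strains by barcodes. The protein stability index is derived by multiplying each gate's read frequency by its gate number and summing the results.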

Sequence | protein stability index (san1∆) | protein stability index (ubr1∆) | protein stability index (doa10∆) | protein stability index (pdr5∆)
ANNQEYDLNFKLRETLV [SMC1] | 3.63 ± 0.18 | 3.41 ± 0.21 | – | –
NDDFSEVFEFKTFNKIQ [BRR2] | 2.24 ± 0.083 | 2.64 ± 0.097 | 2.01 ± 0.051 | 2.06 ± 0.061
GGFEDVEEYTWSSLLNE [RPB2] | 3.12 ± 0.085 | – | – | 3.19 ± 0.17
SMENTPKVPVSAAATPS [GAL11] | 2.24 ± 0.065 | 1.78 ± 0.036 | 2.07 ± 0.045 | 2.19 ± 0.049
IDEIAYLFHNDRIIHTW [ECM29] | 1.3 ± 0.081 | 1.66 ± 0.043 | 1.4 ± 0.049 | 1.43 ± 0.054
SSNSQQSTPQPDDMVEI [ITC1] | 2.58 ± 0.054 | 2.87 ± 0.047 | 3.09 ± 0.064 | 2.74 ± 0.059
SVVSQIEKGSTFGINLI [FAS1] | 3 ± 0.08 | 3.26 ± 0.076 | 3.09 ± 0.2 | 3.06 ± 0.11
MAPSAKATAAKKAVVKG [RPL25] | – | – | – | 2.56 ± 0.15
SATFLRIVGSELIQKYL [RPT2] | 1.18 ± 0.13 | 1.28 ± 0.051 | 1.41 ± 0.066 | 1.46 ± 0.071
RAIPFRRFNSSIGRTAQ [RPL17A] | 2.89 ± 0.097 | 2.68 ± 0.06 | 2.91 ± 0.07 | 2.87 ± 0.08
QYIRTLVSEARTLWPEF [SSN8] | 2.39 ± 0.06 | 2.42 ± 0.046 | 2.61 ± 0.052 | 2.67 ± 0.052
YNIDANVIDTQRKNGVT [ECM29] | 3.26 ± 0.12 | – | 2.75 ± 0.25 | 3.14 ± 0.092
IALNLDTTVNDCLDKLL [SNF2] | 2.65 ± 0.1 | 2.9 ± 0.073 | 2.54 ± 0.14 | 3.06 ± 0.14
TAQKYPIYTGDGWVKLT [YMR153W/NUP53] | 1.62 ± 0.1 | 1.21 ± 0.041 | 1.63 ± 0.062 | 1.77 ± 0.06
DLYEQIGIDPPRGVLLY [RPT3] | 2.8 ± 0.055 | 2.9 ± 0.08 | 2.6 ± 0.073 | 3.02 ± 0.1
SAASIPPQQTYHFPIFN [RPN4] | 2.52 ± 0.035 | 2.68 ± 0.031 | 2.55 ± 0.044 | 2.83 ± 0.045
VSNIEGILDEIMFNHAR [RGR1] | 2.46 ± 0.065 | 2.99 ± 0.031 | 2.77 ± 0.054 | 2.53 ± 0.053
AAPKKTRKAVRPQKLRA [RPL6B] | 2.8 ± 0.16 | – | 2.64 ± 0.11 | 2.61 ± 0.29
LSMNIAPRLRLEDIFQQ [RET1] | 1.98 ± 0.057 | 2.01 ± 0.037 | 2.06 ± 0.05 | 1.92 ± 0.038
LTSFAEENNYQYGYSGS [SNF6] | 2.74 ± 0.11 | 2.48 ± 0.066 | 2.08 ± 0.064 | 2.22 ± 0.093

Sequence | protein stability index (san1∆) | protein stability index (ubr1∆) | protein stability index (doa10∆) | protein stability index (pdr5∆)
IALGEDIGKEMSLRHFG [RPN1] | 2.55 ± 0.2 | 3.34 ± 0.14 | 3.2 ± 0.088 | 3.07 ± 0.11
MFAYAKEHEPCIIFMDE [RPT4] | 2.24 ± 0.065 | 2.4 ± 0.043 | 2.34 ± 0.043 | 2.32 ± 0.05
ISAFTQFLRLIFVSILS [ARP9] | 2.9 ± 0.12 | 1.22 ± 0.027 | 2.17 ± 0.065 | 1.88 ± 0.1
HQFHDILEEKTDLHLPK [NSL1] | 2.27 ± 0.076 | 2.38 ± 0.054 | 2.35 ± 0.07 | 2.29 ± 0.065
LGIKKEKRIQYAKDILQ [RPB2] | 1.64 ± 0.094 | 1.99 ± 0.041 | 2.01 ± 0.059 | 2.12 ± 0.061
ENDIEIKGPEFKFSGTV [YLR335W/NUP2] | 3.07 ± 0.15 | – | 2.72 ± 0.14 | 3.04 ± 0.12
LQRPTATDEESVRLQRF [CSN12] | 2.97 ± 0.1 | 3.16 ± 0.1 | 2.75 ± 0.089 | 2.98 ± 0.12
VLCNSNISKSRAKPVTN [RRP6] | 2.09 ± 0.11 | 2.14 ± 0.067 | 2.3 ± 0.083 | 2.67 ± 0.096
YQNRSTRSQFCLNTQRG [RRI1] | 3.1 ± 0.046 | 2.97 ± 0.034 | 2.8 ± 0.054 | 3.09 ± 0.063
RQGLIHQGSGGSVMSAS [SMC3] | 2.53 ± 0.086 | 2.69 ± 0.067 | 2.75 ± 0.091 | 3.14 ± 0.062
VINPQQLLKGLSLSFSK [DSN1] | 2.54 ± 0.086 | 3.12 ± 0.1 | 3.2 ± 0.11 | 3.1 ± 0.089
NQYKLVFYQVTPEDADE [RPL22B] | 2.34 ± 0.059 | 2.14 ± 0.085 | 2.21 ± 0.1 | 2.7 ± 0.082
SMRIQILRRQAILRQQQ [GAL11] | 3.17 ± 0.19 | – | 3.19 ± 0.29 | 2.98 ± 0.17
DKLEKVTHDCYRVTLES [RPC34] | 3.25 ± 0.075 | 3.12 ± 0.085 | 3.37 ± 0.16 | 3.3 ± 0.06
PEQVYSLLLTNVIITGS [ARP7] | 1.17 ± 0.11 | 1.23 ± 0.046 | 1.36 ± 0.06 | 1.39 ± 0.047
SNAFYSVLRDTLVAQNL [SMC4] | 1.94 ± 0.076 | 2.13 ± 0.033 | 2.13 ± 0.086 | 2.09 ± 0.054
AQFIVISLRNNMFELAQ [SMC4] | 1.51 ± 0.092 | 2.02 ± 0.09 | 2.14 ± 0.11 | 1.67 ± 0.082
YEKELMGDELTRSHFNA [RPN6] | 3.34 ± 0.057 | 3.48 ± 0.1 | 2.96 ± 0.13 | 3.39 ± 0.15
PYGVYHPPFIKYACLAI [SIN4] | 1.46 ± 0.073 | 1.17 ± 0.034 | 1.42 ± 0.048 | 1.44 ± 0.04
ITTFVKRSTVPLNDGFV [YML103C/NUP188] | 1.91 ± 0.11 | 2.35 ± 0.053 | 2.37 ± 0.066 | 2.32 ± 0.093
